# From patent US20050154189A1 (MAXYGEN, published 2005)
# Numbering of substitutions follows the chain as printed.
# B1: Round 2 CTLA4 A-H4-5* (ligand)
# chain: ITPKSVTKRVKETVMLSCDYSTSTEELTSLRIYWQKDSKMVLAILPGKVQVWPEYKNRTITDMNDNPRIVILALRLSDKGTYTCVVQKNENGSFRREHLTSVTLSIRADFPVPSITDIGHPAPNVKRIRCSASGGFPEPRLYWLENGEELNATNTTVSQDPGTELYMISSELDFNVTNNHSIVCLIKYGELSVSQIFPWSKPKQEPPIDQLPFWVIIPVSGALVLTAVVLYCLACRHVARWKRTRRNEETVGTERLSPIYLGSAQSSG
# B2: Round 1 CTLA4BP-7 (ligand)
# chain: VIHVTNEVKEVATLSCGHNVSGEELAQTRIYWQKEKKMVLTMMYGDMNIWPEYKNRTIFDITNNLSIVILALRPSDEGTYECVVLKYEKDAFKREHLAEVMLSVKADFPTPSITDFEIPPSNIRRIICLTSGGFPEPRLAWMKDGEELNAISTTVSQDPGTELYAVSSKLDFNMTTNHSFMCLIKYGHLRVNQTFSWNTPKQEHFPDNLLPSWAITLISVNGIFVICCLTYCFAPRCRERRRNERLRRESVRPV
# notes: also called R1-7; R1 CTLA-4BP-7
# B3: Round 2 CTLA4 A-C9-9 (ligand)
# chain: SGITPKSVTKRVKETVMLSCDYSTSTEELTSLRIYWQKDSKMVLAILPGKVQVWPEYKNRTFPDIINNLSLMILALRLSDRGTYTCVVQKNENGSFRREHLTSVTLSIRADFPVPSITDIGHPAPNVKRIRCSASGGFPEPRLAWMEDGEELNAVNTTVDQDLDTELYSVGSELDFNVTNNHSIVCLIKYGELSVSQIFPWSKPKQEPPIDQLPFWVIIPVSGALVLTAVVLYCLARRHVARWKRTRRNEETVGTERLSPIYLGSAQSSG
# B4: Round 2 CTLA4BP 2x2-f3 (ligand)
# chain: VIYVTKEVKEVATLSCGHNVSVEELAQTRIYWQKEKKMVLIMMSGDMNIWPEYKNRTIFDITNNLSIVILALRPSDEGTECVVLKYEKDAFKREHLAEVTLSVKADFPTPSISDFEIPPSNIRRIICSTSGGFPEPHLSWLENGEELNAINTTVSQDPGTELYTVSSKLDFNMTTNHSFMCLIKYGHLRVNQTFNWNTPKQEHFPDNLLPSWAITLISVNGIFVICCLTYCFAPRCRERRRNERLRRESVCPV
# B5: Round 2 CTLA4BP-5x2-4c (ligand)
# chain: VIHVTKEVKEVATLSCGLNVSVEELAQTRIYWQKEKKMVLTMMSGDMNIWPEYKNRTIFDITNNLSIVILALRPSDEGTYECVVLEYEKDAFKREHLAEVMLSVKADFPTPSISDFEIPPSNIRRIICSTSGGFPEPHLSWLENGEELNGINTTVSQDPETELYTVSSKLDFNMTTNRSFVCLIKYGHLRVNQTFNWNTPKQEHFPDNLLPSWAITLISVNGIFVICCLTYCFAPRCRERRRNERLRRESVHPV
# B6: Round 2 CTLA4BP-5x6-9d (ligand)
# chain: B5 chain with L18H, Y31H, E86K, P120T, G150A, T176A, R178H, H252R
# B7: Round 2 CTLA4BP-5x8-1f (ligand)
# chain: VIHVTKEVKEVATLSCGHNVSVEELAQTRIHWQKEKKMVLTMMSGDMNIWPEYKNRTIFDITNNLSIVILALRPSDEGTYECVVLKYEKDAFKREHLAEVMLSVKADFPTPSITDFEIPPSNIRRIICSASGGFPEPHLFWLENGEELNAINTTVSQDPETELYAVSSKLDFNMTTNHSFMCLIRYGHLRVNQTFNWNTPKQEHFPDNLLPSWAITLISVNGIFVICCLTYCFAPRCRERKSNERLRRESVRPV
# B8: Round 2 CTLA4BP-5x3-6f (ligand)
# chain: VIHVTKEVKEVATLSCGHNVSVEELAQTRIYWQKGKKMVLTMMSGDMNIWPEYKNRTIFDITNNLSIVILALRPSDEGTYECVVLEYEKDAFKREHLAEVMLSVKADFPTPSISDFEIPTSNIRRIICSTSGGFPEPHLSWLENGEELNAINTTASQDPETELYTVSSKLDFNMTTNHSFMCLIKYGHLRVNQTFNWNTPKQEHFPDNLLPSWAITLISANGIFVICCLAYCFAPGCRERKSNERLRRESVRPV
# B9: Round 2 CTLA4BP-5x5-6e (ligand)
# chain: B7 chain with A130T, F140S, N152S, A165T, R185K, P200T, V220A, Y231H, S242R
# B10: Round 2 CTLA4BP-5x4-11d (ligand)
# chain: VIHVTKEVKEVATLSCGLNVSVEELAQTRIHWQKEKKMVLTMMSGDMNIWPEYKNRTIFDITNNLSIVILALRPSDEGTYECVVLKYDKDAFKREHLAEVTLSVKADFPTPSISDFEIPPSNIRRIICSTSGGFPEPHLSWLENGEELNAINTTVSQDPETELYTVSSKLDFNMTANHSFVCLIKYGHLRVNQTFNWNTPKQEHFPDNLLPSWAITLISVNGIFVICCLTYRFAPRCRERKSNERLRRESVRPV
# B11: Round 2 CTLA4BP-5x4-12c (ligand)
# chain: B7 chain with T114S, A130T, A165T, R185K, V220A, C232R, R245T
# notes: Full-length clone on transiently or stably transfected 293 cells; The end 288 is the end of the entry as counted; also called R2 CTLA-4BP 5x4-12c; clone 12c
# B12: Round 2 CTLA4BP-5x9-12c (ligand)
# chain: B7 chain with A130T, F140S, V155A, A165T, R185K
# B13: Round 2 CTLA4BP-5x2-8c (ligand)
# chain: B7 chain with V4M, H31Y, R94Q, A130T, M181V, R185K, V220A, K241R, S242R, R252H
# B14: Round 2 CTLA4BP-5x2-7b (ligand)
# chain: B10 chain with L18H, D88E, D107G, S114T, E160G, V220A, R232C, K241R, S242R
# B15: Round 2 CTLA4BP-5x5-2e (ligand)
# chain: B7 chain with H18L, T114S, A130T, F140S, R185K, K241R, S242R, R245T
# B16: Round 2 CTLA4BP-5x3-10e (ligand)
# chain: B7 chain with H31Y, K86E, M101T, T114S, A130T, R185K, V220A, R252H
# B17: Round 2 CTLA4BP-5x4-1f (ligand)
# chain: B7 chain with T114S, P120T, A130T, A165T, R185K, K241R, S242R, R252C
# B18: Round 2 CTLA4BP-5x3-11b (ligand)
# chain: B5 chain with L18H, P74S, E86K, M101T, S114T, G150A, N152S, R242S, H252R
# B19: Round 2 CTLA4BP 2x1-e2 (ligand)
# chain: VIHVTKEVKEVATLSCGHNVSDEELAQTRIHWQKEKKMVLTMMSGDMNIWPEYKNRTIFDITNNLSIVILALRPSDEGTYECVVLKYEKDAFKREHLAEVTLSVKADFPTPSISDFEIPPSNIRRIICSTSGGFPEPHLSWLENGEELNAINTTVSQDPGTELYTVSSKLDFNMTTNHSFMCLIKYGHLRVNQTFNWNTPKQEHFPDNLLPSAITLISANGIFVICCLTYCFAPRCRERRRNERLRRESIHPV
# B20: Round 2 CTLA4BP 2x3-h2 (ligand)
# chain: VIHVTKEVKEVATLSCGHNVSVEELAQTRIYWQKEKKMVLTMMSGDMNIWPEYKNRTIFDITNNLSIVILALRPSDEGTYECVVLKYEKDAFKREHLAEVMLSVKADFPTPSISDFEIPPSNIRRIICSTPGGFPEPRLAWMEDGEELNAISTTVSQDPGTELYAVSSKLDFNMTTNHSFMCLIKYGHLRVNQTFNWNTTKQEHFPDNLLPSWAITLISVKGIFVICCLTYCFAPRWRERKSNERLRRESVRPV
# B21: Round 2 CTLA4BP 2x4-g9 (ligand)
# chain: VIHVTKEVKEVATLSCGHNVSVEELAQTRIYWQKDKKMVLTMMSGDMNIWPEYKNQTIFDITNNLSIVILALRPSDEGTYECVVLKYEKDAFKQEHLAEVMLSVKADFPTPSISDFEIPPSNIRRIICSTSGGFPEPRLAWMEDGEELNAISTTVSQDPGTELCTVSSKLDFNMTTNHSFMCLIRYGHLRVNQTFNWNTPKQEHFPDNLLPSWAITLISVKGIFVICCLTYCFAPRGRERKSNGRLRRESVHPV
# B22: Round 2 CTLA4BP 2x1-c9 (ligand)
# chain: VIHVTKEVKEVATLSCGHNVSAEELAQTRIYWQKEKKMVLTMMSGDMNIWPEYKNRTIFDITNNLSIVILALRPSDEGTYECVVLEYEKDAFKREHLAEVMLSVKADFPTPSITDFEIPTSNIRRIICSTSGGFPEPRLAWMEDGEELNAISTTASQDPETELYTVSSKLDFNMTTNHSFMCLIKYGHLRVNQTFNWNTPKQEHFPDNLLPSWAITLISVNGIFVICCLTHCFAPRCRERRRNERLRRESVCPV
# B23: Round 2 CTLA4 A-H3-6 (ligand)
# chain: GISQVTKSVKEMAALSCDYNISIDELARMRIYWQKDQQMVLSIISGQVEVWPEYKNRTFPDIINNLSLMILALRLSDKGTYTCVVQKNENGSFRREHLTSVTLSIRADFPVPSINDLGNPSPNIRRLICSTSGGFPRPHLYWLENGEELNATNTTLSQDPETKLYMISSELDFNMTSNHSFLCLVKYGDLTVSQTFYWQESKPTPSANQHLTWTIIIPVSAFGISVIIAVILTCLTCRNAAIRRQRRENEVEMQSCSQSP
# B24: Round 2 CTLA4 A-B4-6 (ligand)
# chain: ITPKSVTKRVKETVMLSCDYNTSTEELTSLRIYWQKDSKMVLAILPGKVQVWPEYKNRTITDMNDNPRIVILALRLSDKGTYTCVVQKNENGSFRREHLTSVTLSIRADFPVPTINDLGNPSPNIRRLICSTSGGFPRPHLYWLENGEELNATNTTLSQDPETKLYMISSELDFNMTSNHSFLCLVKYGDLTVSQTFYWQESKPTPSANQHLTWTIIIPVSAFGISVIIAVILTCLTCRNAAIRRQRRENEVEMQSCSQSP
# B25: Round 2 CTLA4 A-E2-6 (ligand)
# chain: B24 chain with K79S, T103R, S105M, S158P
# B26: Round 2 CTLA4 A-F10-1 (ligand)
# chain: B24 chain with F197L
# B27: Round 2 CTLA4 A-F1-6 (ligand)
# chain: B24 chain with N21S, T103R, S105M
# Target: T1, Soluble CTLA-4-Ig (human, UniProt P16410 36-161, FITC-conjugated in the two-colour FACS assays; unlabelled and detected with FITC goat anti-human IgG in the concentration-dependent assay)
# T1 construct: extracellular domain; Bought from R&D Systems; also called sCTLA-4-Ig; CTLA-4-Ig Fc; not shown: Fc portion of human IgG1
# T1 sequence (P16410 36-161): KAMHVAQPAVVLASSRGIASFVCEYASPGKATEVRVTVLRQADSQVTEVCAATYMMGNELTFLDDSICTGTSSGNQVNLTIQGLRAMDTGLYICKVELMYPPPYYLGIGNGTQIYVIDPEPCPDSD
# Assay: two-colour FACS profile on transfected cells; score of preference for CTLA-4-Ig over CD28-Ig vs WT hB7-1
row,Binding Score,Binder
1,1,B1
2,1,B2
3,0,B3
4,1,B4
5,1,B5
6,2,B6
7,2,B7
8,2,B8
9,2,B9
10,2,B10
11,2,B11
12,2,B12
13,2,B13
14,1,B14
15,2,B15
16,2,B16
17,2,B17
18,1,B18
19,1,B19
20,0,B20
21,1,B21
22,1,B22
23,1,B23
24,1,B24
25,1,B25
26,1,B26
27,1,B27
